In the series the test system is Saccharomyces cerevisiae. The series is described as follows: transcriptional activation domain activity (GFP:mCherry ratio, weighted mean of sorted bins, harmonized to initial dataset scale) (arbitrary fluorescence ratio units); higher = stronger transcriptional activation. The note with it: beta-estradiol 1 µM; induction time 4 h. In a few lines:
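Values are activation activity, found as the read-weighted mean of bin median fluorescence, averaged across barcodes and then mapped linearly onto the initial dataset scale. Barcoded protein tiles fused to an estradiol-inducible synthetic transcription factor were integrated at the URA3 locus of GFP-reporter yeast diploids. Cells were induced for 4 hours at 30 °C with 1 uM beta-estradiol in SC, sorted into 8 bins by GFP:mCherry ratio, and barcode-sequenced, with tiles under 50 reads discarded.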

This is an account of results in the supplement of paper PMC12636428.

For “MRILGCVVNAHLKQMIHRNSLLIIPECPRMFWLGCQTRCVVLGEWIGLHANRF”, the “transcriptional activation domain activity” value came out at 69300.

For the sequence “EEEDGEEDYGNRLFVIASDKLQEEQLLIDVPPGNILSSNLLQVLKEILKTRKK”, the “transcriptional activation domain activity” value came to 26100.

For the sequence “MVSFYYICSCAGSCWMLNARLHLWGLIFTVIFGDTVHVICLLFWFYFYRPPPF”, the “transcriptional activation domain activity” value worked out at 41200.

Turning to “DPEEVQGGKQRAEGNQGGGGRQGRRGPRGAEGQDHPGVQRPHRRPRRGHQAHL”, the “transcriptional activation domain activity” value came out at 33200.

With “ENHPPGVAAQILIARISWILWHSVEQIRITVWVVGRKFMMVLLQGTVPRISVR”, the “transcriptional activation domain activity” value was 71600.

“EVTEAEANGETPNAEGVTPAEGEQKPKKKRKSNRKKKAAATPAEGEAAKEAPA”: the “transcriptional activation domain activity” value is 34500.

Consider “STIHNLFEVVLLPDLCGFCCFSMRFVVLVDLVGTLTLPVTVVYLIYLIYVIAS”, for which the “transcriptional activation domain activity” value was 54400.

“IVCRTEKTSHMLIDFSEHLRINVYVLGATFVRLVHLLKVKIPLVDPVLYIVRF”: the “transcriptional activation domain activity” value came to 59900.

Consider “MYECLAECEFLARLYFFLLHCCVYCTIIVYIFFLLVNCYAGVVSRLLELQTLR”, for which the “transcriptional activation domain activity” value turned out to be 41100.

On to “MRNDRGERKKEKRRREARERKKKERKGRREKGGKRKEEDEEKGRGGRGRRNGG”, for which the “transcriptional activation domain activity” value is 28600.

With “MYHAKFLYLLLGFLVYFLSSQTSINVYYISLNPFLFLAHPTILLIPLFPFRYT”, the “transcriptional activation domain activity” value worked out at 39700.

As to “AILLGEAYGYRILPFVPVWTIFATVNLAYAVCSTSWLLYWVYLVCCWPTLLIV”, the “transcriptional activation domain activity” value stood at 55500.

Consider “TWKVIGLVWRCPELTEYLNKVILTIIIIRSESHFDSSIAALNESCLTPYGTVD”, for which the “transcriptional activation domain activity” value came to 28800.

On to “VCKHLKRQRISVDGSLKLISDMNHYFTYIETLKNNELLLYFKALRELSQIYLV”, for which the “transcriptional activation domain activity” value turned out to be 70700.

With “LPKDANLCFGKDFLAMYFYCTAVPTLFMFMVSERLYNALMQLAVFLLLCILHL”, the “transcriptional activation domain activity” value worked out at 65000.

For “GSMGKVKLGVSSISGEKVAIKIIPRFTSTAAAHRPPPPTPSNEPSGSSRRPSS”, the “transcriptional activation domain activity” value turned out to be 7050.

For the sequence “MLPRQRHSFWSVVTYLIMYYIIMYAFLYGIKYTHWIYFLSNHLVMWLLLLHFL”, the “transcriptional activation domain activity” value is 41100.

As for “HGSTLTTIMIQVSEVMILPSFFQELLDTIRTRCPRVVNFMIWFQVWNWMMVPV”, the “transcriptional activation domain activity” value stood at 73300.

Take “LKGDHLDAVMVPKCESAADLHFVTDVIRHLRPDRHPSSTASASSSGSRREPVR”: the “transcriptional activation domain activity” value is 33200.

“NPTDTILILATSLPTVSTFFINYLLLQGLIGSAIELTQAYRLLWNIVIVRWFA”: the “transcriptional activation domain activity” value came to 54500.

With “SVCNDGNAGDFLYDCFGEFNNQPFNWDVLSPRVAANPYYSFDDFGSSLFILFQ”, the “transcriptional activation domain activity” value amounted to 106000.

Regarding “GELLYIILSIVDVDLICRFTIIHPIPTFDNLTALNMVIDRMQEVGLYLVYDMR”, the “transcriptional activation domain activity” value is 52300.

In the case of “KSEKPEKERKHRDKGEREHRDRSEREHKVREPKEPREKGEKEKRHKTAEEKAG”, the “transcriptional activation domain activity” value came to 16900.

For the sequence “VEEQKPVAEEAPVRTKVEESKVQEAPVVEAKAEVAVTAAAAVAATAAVATAAV”, the “transcriptional activation domain activity” value came to 23500.

For “EEEEQAKTSPAKSESKKEKKDKKKKRSADEIESGPEGTPKVAKKIKADSGAAV”, the “transcriptional activation domain activity” value was 42700.

As for “RPSSPPRRPPPSSPSPAPPSKSPATCRSKTSPWGHGRCRPRPPARAPASGTAP”, the “transcriptional activation domain activity” value came out at 45200.

Take “MSYLQMFTLIEGKFQKQMLFLFFFLLCNLLSFFYIYIYVLLTLIFFTTTSIHL”: the “transcriptional activation domain activity” value is 56700.

In the case of “MFCLRSWIPVLFFLLRTNASPVYLILSISATYFLNRPCVYCSLLLFILVVALF”, the “transcriptional activation domain activity” value was 57600.

For the sequence “ASDSAPEPVKKKRGRPPKAQSDSEVVEKRPKKKPGPKPKPKAKAARKRKAPVS”, the “transcriptional activation domain activity” value was 18900.

With “MNYLFSCFKFFLFFFFFLLFSFSPHLFFIFSCLLYLACLCVCVWWKGPFSCIS”, the “transcriptional activation domain activity” value came to 72500.

“LARVYIRVFVLRVFRLDDYFIVVAMLCSILACSIFLWVVHLGMGKHFFALPPE”: the “transcriptional activation domain activity” value amounted to 63900.

On to “MSRKIYCTPAFSTIHLLYLHNFFLIPIYYLQTSLRNILSKLSFCLILSILLLP”, for which the “transcriptional activation domain activity” value worked out at 52900.

Regarding “VMFHGKQMKNFLIDINSFTNQQQQAQDNPSFLPLDIEQSSYDLSEDAMSYPII”, the “transcriptional activation domain activity” value is 115000.

For the sequence “FRVASYRIWCLLGCGSVWSLIYVPLAWNDGFSLFYLLHPWKIVRVFILNVLAG”, the “transcriptional activation domain activity” value was 54700.

On to “AAKALCKLQEAILKTYGMPGLLCMLRGISFHIYAVLTCTMLHLVAITCPDPDI”, for which the “transcriptional activation domain activity” value was 32900.

As to “YEHSFEIWLACTVVFPGAGNIGFTLLEYRLGHRSLASSFFENITWIPFFFFFF”, the “transcriptional activation domain activity” value stood at 53900.

On to “RAAVSAPVVPTKAAVAPEEPPVKRKRGRPRLTSPRYRPKAAPAKAPAPTPKVV”, for which the “transcriptional activation domain activity” value was determined as 50000.

Regarding “ATGAGSDANAGEDETFHKSGEATLSSQHRYKDAIDFRKIVLKLTDGVRWGLGI”, the “transcriptional activation domain activity” value came to 37200.

For “VVLASSPSSQTTSSTSVVLIFGSDDKRVKEVGEGLKAKLDMRGGGKGTRWSGK”, the “transcriptional activation domain activity” value came out at 14200.

Regarding “PAADKSDAPRKPVSISIGGGAKKAEEAKPEPAKAASEGPAPAGGVAAVKAAAA”, the “transcriptional activation domain activity” value stood at 39300.

For the sequence “RKIVNEPREYLHAGNVKDNQGARQKKRRVGRGLGSGLGKTSGRGQKGWKARAP”, the “transcriptional activation domain activity” value came out at 37000.

For “VQRLHALEKHEYDVCTNLEACLRFGLWAQRGVLSLWHLDLLNGTWMTCLSGVK”, the “transcriptional activation domain activity” value is 39600.

Take “AAGGSSSQAQITVNPGAKAEEEAEEDEGQLVQRMARRGIKSHVFVGSEIVQIP”: the “transcriptional activation domain activity” value was 33900.

In the case of “WARNARKNKSTEEASAQEQRRGAQVIVIHPGSRFLRIGKASEVSPVTVLNVVA”, the “transcriptional activation domain activity” value amounted to 55600.

In the case of “RFLLAALLLFGPLIGSCPSMSMSLMITEFGLFCCACLLGFVHHLFFPIFVESR”, the “transcriptional activation domain activity” value came to 47600.

For the sequence “VSLLTVIVPIGITCRMVIWICALGMVISSLCVDTILLNKAYKFSFIYIVVRHT”, the “transcriptional activation domain activity” value was 55300.

“IMYSVIVSLLLFLFLLVLLRRYLVSLYYFTSLFLSPRLCARIAIVFRICLLYI”: the “transcriptional activation domain activity” value came to 50300.

In the case of “MFQAKLLQHMCDLHTNSGDGELKTLLTEILRMLLVTYIMAHVLTIERDTVHSV”, the “transcriptional activation domain activity” value is 47600.

As to “REGRKKGREAREKRSGGKGGKGGKGKGRATDGAEGAEEGAAAGARQPNGRNAK”, the “transcriptional activation domain activity” value is 22200.

“AVWGTGYGKYFVLVLCLFAGINITSCWVLIKYLGGLTWCTLFFKNRLLWINFV”: the “transcriptional activation domain activity” value amounted to 60400.

Regarding “EDEQPAAPADGRKKTVTKGADKAGLGGTPVRKNATTAGRGRKPATAKKGASQP”, the “transcriptional activation domain activity” value came to 32300.

As to “ADEYIFHLTHGTLCICEHQGEENVVVVNVKSIISVVAMVPFPFIVRGCNNQYF”, the “transcriptional activation domain activity” value amounted to 32600.

On to “LRLIWVYLYRCHESGSTVTSKLESLLKHFFPPNRLIVVPQEERLEPFVCIVHF”, for which the “transcriptional activation domain activity” value worked out at 53100.

On to “YSQLILYLLAKAKLHWNELQNLQVIFADLFEHIHIAGILPNKYQTLSVMANAL”, for which the “transcriptional activation domain activity” value was found to be 56500.

Take “MFGIGFFSRVLPWLWLWLWLYFFFFFFLYIFCMHYEQFSLSLTYNKLPFSLAL”: the “transcriptional activation domain activity” value is 65900.

“RSDRDRRRKQSPESRGRRHRSRSKDARREKRKRADSEGEQSARRSRPSEHHRR”: the “transcriptional activation domain activity” value turned out to be 19100.

Turning to “VHLLLTVFFHYVPTPDPFFTNLLLCPLDGLLRANSVTLALSLLSRPSINPLLV”, the “transcriptional activation domain activity” value was determined as 58300.

Consider “KLIFIFFFFYFFSFFVLLLLLLFLLLLFLPLLMATSACMLGLMFDKLPFFSNI”, for which the “transcriptional activation domain activity” value is 46300.

Turning to “SSVVLFVFFLLFLLFSLFFYPTWLLPCLIFLLNDYLLFFLLFFCRVSCSFAPL”, the “transcriptional activation domain activity” value turned out to be 45800.

Regarding “MSMFAMDFIIGHMVLFVLSPFTLVPYIDQLHSTMLFWLRPLLRLLRFYVHLYS”, the “transcriptional activation domain activity” value stood at 68200.

Regarding “PSPRRRRDEDRPRRGGGGFRWKGEERRDRRERPRSPRPEKRRRSKSPRPEKKK”, the “transcriptional activation domain activity” value stood at 27500.

“MRFWFLYLFLLFGIGWVGLALLYYYRIFCLFLCNIRILFLLVCFISTHSIIYS”: the “transcriptional activation domain activity” value is 46200.

Regarding “PGEVSEAEANGDAPKAEAAVAPDSDEAAKPKKKKKARKPKAAKKGEDGEPAAA”, the “transcriptional activation domain activity” value was found to be 17100.

“ANHQVYADWWYAWCLTYYTGTYKDVFIVLKKSLKWVPVLGWGMQSFRFIFLAR”: the “transcriptional activation domain activity” value turned out to be 79000.

As to “ILKRNMYFIIPLLLLLLGTVALAIYDTIWLLMRTYARGHLSHSHRFWSLLFYS”, the “transcriptional activation domain activity” value was found to be 55700.

For the sequence “MSTEEQADGAPSSASDAGLKIWSCVTCRRRKVRCDRRDPCSNCVRAAIDCHYP”, the “transcriptional activation domain activity” value came out at 30100.

In the case of “EHFAGNNHVNRVVNFVQSCFTFYAPKMCKYYTEILQALFSQPTWWMVCCCGFW”, the “transcriptional activation domain activity” value stood at 46200.

In the case of “KGFSLTELVFWLWSLGFILDELVGFSDAGFTLYVMSLWNWFDLIILLLLCSYA”, the “transcriptional activation domain activity” value stood at 49900.

Turning to “RLPNNANSTTGLNDNDYNLDDTNNDNTNSMQSILEDFVSSEEALKFMPDAGRD”, the “transcriptional activation domain activity” value amounted to 30400.

As to “LVGLIGTLVAEPGLGADRFLLCFLFLSYYTLLTPSNLLVGIFWLVFFVLQLGY”, the “transcriptional activation domain activity” value was determined as 39700.

Consider “FVIGMSICRAAPGLYIYCWKENIFFLEPSYKSAAVVLSWVWFQVFLLLSQQFF”, for which the “transcriptional activation domain activity” value turned out to be 59200.

“RWQYATLFFSGVSGGATLALSLCVITHPSLLTRIVVVCIFLTLISAFTILPIS”: the “transcriptional activation domain activity” value stood at 38500.

Turning to “LCSWLIPRVLVLLGRKGCEKLMENIKALFDLFFQIIPQYPNFWCWESILLDYL”, the “transcriptional activation domain activity” value is 41800.

On to “PVRGIVELPRNSFPDEVLHFTCLTIVCAAIFFLFSSFLFFFCLLHLSCYLFVP”, for which the “transcriptional activation domain activity” value was determined as 30800.
